Reference: US20200362033A1
Numbering of substitutions follows the chain as printed.

B1: #101H1L2hIgG2 (antibody)
heavy: EVQLVESGGGLVQPGRSLRLSCAASGFTFSDYYMAWVRQAPGKGLEWVATISYDGSNTYYRDSVKGRFTISRDNSKSTLYLQMNSLRAGDTAVYYCARFYNNYYFDYWGQGTLVTVSSASTKGPSVFPLAPCSRSTSESTAALGCLVKDYFPEPVTVSWNSGALTSGVHTFPAVLQSSGLYSLSSVVTVPSSNFGTQTYTCNVDHKPSNTKVDKTVERKCCVECPPCPAPPVAGPSVFLFPPKPKDTLMISRTPEVTCVVVDVSHEDPEVQFNWYVDGVEVHNAKTKPREEQFNSTFRVVSVLTVVHQDWLNGKEYKCKVSNKGLPAPIEKTISKTKGQPREPQVYTLPPSREEMTKNQVSLTCLVKGFYPSDIAVEWESNGQPENNYKTTPPMLDSDGSFFLYSKLTVDKSRWQQGNVFSCSVMHEALHNHYTQKSLSLSPGK
light: DIQMTQSPSSLSASVGDRVTINCKASQNLYKNLAWYQQKPGKAPKLLIDNANSLQTGIPSRFSGSGSGTDFTLTISSLQPEDFATYFCQQYYSGSYTFGQGTKVEIKRTVAAPSVFIFPPSDEQLKSGTASVVCLLNNFYPREAKVQWKVDNALQSGNSQESVTEQDSKDSTYSLSSTLTLSKADYEKHKVYACEVTHQGLSSPVTKSFNRGEC
B2: #84H1L2hIgG2 (antibody)
heavy: EVQLVESGGGLVQPGGSLRLSCAASGFTFSNYYMAWVRQAPGKGLEWVSTITTSGSRPYYADSVKGRFTISRDNSKNTLYLQMNSLRAEDTAVYYCARHIYYYDGYPFAYWGQGTLVTVSSASTKGPSVFPLAPCSRSTSESTAALGCLVKDYFPEPVTVSWNSGALTSGVHTFPAVLQSSGLYSLSSVVTVPSSNFGTQTYTCNVDHKPSNTKVDKTVERKCCVECPPCPAPPVAGPSVFLFPPKPKDTLMISRTPEVTCVVVDVSHEDPEVQFNWYVDGVEVHNAKTKPREEQFNSTFRVVSVLTVVHQDWLNGKEYKCKVSNKGLPAPIEKTISKTKGQPREPQVYTLPPSREEMTKNQVSLTCLVKGFYPSDIAVEWESNGQPENNYKTTPPMLDSDGSFFLYSKLTVDKSRWQQGNVFSCSVMHEALHNHYTQKSLSLSPGK
light: DVQMTQSPSSLSASVGDRVTITCKASKSISNNLAWYQQKPGKANKLLIHSGSTLQSGTPSRFSGSGSGTDFTLTISSLQPEDFATYYCQQYNEYPLTFGQGTKVEIKRTVAAPSVFIFPPSDEQLKSGTASVVCLLNNFYPREAKVQWKVDNALQSGNSQESVTEQDSKDSTYSLSSTLTLSKADYEKHKVYACEVTHQGLSSPVTKSFNRGEC
B3: #131H2L2hIgG2 (antibody)
heavy: QVQLVESGGGVVQPGRSLRLSCAASGFTFNNYWMTWVRQAPGKGLEWVASITKAGGSTYYADSVKGRFTISRDNSKSTLYLQMNSLRAEGTAVYYCTRELGEFYVMDAWGQGTTVTVSSASTKGPSVFPLAPCSRSTSESTAALGCLVKDYFPEPVTVSWNSGALTSGVHTFPAVLQSSGLYSLSSVVTVPSSNFGTQTYTCNVDHKPSNTKVDKTVERKCCVECPPCPAPPVAGPSVFLFPPKPKDTLMISRTPEVTCVVVDVSHEDPEVQFNWYVDGVEVHNAKTKPREEQFNSTFRVVSVLTVVHQDWLNGKEYKCKVSNKGLPAPIEKTISKTKGQPREPQVYTLPPSREEMTKNQVSLTCLVKGFYPSDIAVEWESNGQPENNYKTTPPMLDSDGSFFLYSKLTVDKSRWQQGNVFSCSVMHEALHNHYTQKSLSLSPGK
light: B2 light with S30N, N31T, N32Y, Q38E, A43T, H49Y, Y91H, L96F, V104L

molecular target: human CD147 endogenously expressed on human cancer cell lines (human), P35613; assay: cell-based or functional assay

| ratio of the phosphorylated p38MAPK signal to the detected p38MAPK signal, HepG2 cells, 10 ug/ml, 15 minutes (fold of the human IgG treated group) | Binder |
| --- | --- |
| > 2 | B1 |
| > 2 | B2 |
| > 2 | B3 |
